# Assay results reported in US20240218035.
# Target: inactive hepatocyte growth factor (pro-HGF), single-stranded form, in CHO culture supernatant
# Sequence (chain, as listed by the source): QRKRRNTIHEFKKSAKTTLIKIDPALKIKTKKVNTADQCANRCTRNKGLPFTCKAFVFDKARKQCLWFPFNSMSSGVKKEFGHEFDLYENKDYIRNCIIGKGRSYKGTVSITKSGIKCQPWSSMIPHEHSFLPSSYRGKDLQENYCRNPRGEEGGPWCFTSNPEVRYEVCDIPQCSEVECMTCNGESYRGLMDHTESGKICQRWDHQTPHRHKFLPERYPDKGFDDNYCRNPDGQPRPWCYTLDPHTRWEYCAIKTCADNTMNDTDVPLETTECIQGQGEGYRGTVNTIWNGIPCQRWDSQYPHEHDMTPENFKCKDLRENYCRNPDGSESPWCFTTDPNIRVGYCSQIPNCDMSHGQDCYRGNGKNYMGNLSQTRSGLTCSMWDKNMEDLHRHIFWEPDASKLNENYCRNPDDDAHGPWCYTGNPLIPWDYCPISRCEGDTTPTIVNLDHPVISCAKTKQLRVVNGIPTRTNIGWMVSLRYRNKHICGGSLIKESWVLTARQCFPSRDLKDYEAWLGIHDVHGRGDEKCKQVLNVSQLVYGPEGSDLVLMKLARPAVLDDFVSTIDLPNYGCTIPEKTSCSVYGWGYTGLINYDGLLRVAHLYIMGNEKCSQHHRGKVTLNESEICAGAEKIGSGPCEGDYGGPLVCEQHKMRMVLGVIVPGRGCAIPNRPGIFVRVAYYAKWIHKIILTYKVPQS
protein,measurement,value
"active hepatocyte growth factor activator (active HGFA), as activated HGFA culture supernatant from CHO cells (protein) VQLSPDLLATLPEPASPGRQACGRRHKKRTFLRPRIIGGSSSLPGSHPWLAAIYIGDSFCAGSLVHTCWVVSAAHCFSHSPPRDSVSVVLGQHFFNRTTDVTQTFGIEKYIPYTLYSVFNPSDHDLVLIRLKKKGDRCATRSQFVQPICLPEPGSTFPAGHKCQIAGWGHLDENVSGYSSSLREALVPLVADHKCSSPEVYGADISPNMLCAGYFDCKSDACQGDSGGPLACEKNGVAYLYGIISWGDGCGRLHKPGVYTRVANYVDWINDRIRPPRRLVAPS",activation state of pro-HGF confirmed with SDS-PAGE (conversion of the single strand into α and β chains) after about 20 hours of reaction at 25° C.,"under a reductive condition after activation the single strand substance had disappeared and separated into α and β chains, and thus sufficient activation of pro-HGF was confirmed"
